This is an account of results in US20220267376A1, “P53 ACTIVATOR PEPTIDOMIMETIC MACROCYCLES” (Merck Sharp & Dohme Corp., priority 2019, published 2022).

Like-named read-outs stand apart in the source and are kept apart here. Positions of bridges follow the written chain, without caps; N, C: chain ends. Non-standard residues stand in square brackets, D forms with d. No end group written: not given here. dPhe(4-CF3) = N[C@H](Cc1ccc(C(F)(F)F)cc1)C(=O)O; dTrp(6-F) = N[C@H](Cc1c[nH]c2cc(F)ccc12)C(=O)O; R8 = C=CCCCCCC[C@@](C)(N)C(=O)O; R5 = C=CCCC[C@@](C)(N)C(=O)O; S5 = C=CCCC[C@](C)(N)C(=O)O Where only a bound is given, the exact number is not on record here.

In data set [1] the test system is Jump-In™ T-REx™ CHO-K1 BLA cells. The data set is described as follows: Tetracycline beta-lactamase reporter gene assay (counterscreen). It is filed as cell-based. The note with it: for EC50: read-out: Counterscreen EC50 (μM) (2% FBS) 16 H, 2% FBS, 16 H.
Protocol: Cells were seeded into a 384-well plate a density of 4000 cells per well. […] Measurements were carried out using Envision multiplate reader (Perkin-Elmer).
For a further data set, the system named is HCT-116 cells. The data set is described as follows: HCT-116 western blot analysis (p53, MDM2, p21). It is filed as cell-based. As to conditions: 6.123, 12.5 and 25 μM, 4 or 24 hours. As to the method: Preparation of compound Stock and working Solutions: 10 mM or 1 mM stock solutions of compounds were prepared in 100% DMSO. Each compound was then serially diluted in 100% DMSO and further diluted 10-fold into HPLC grade sterile water to prepare 10× working solutions in 10% DMSO/water of each compound. Depending on the required volume used in the relevant assay, compounds were added to yield final concentrations as indicated in the relevant figure with a residual DMSO concentration of 1% v/v.
HCT116 cells (Thermo Fisher Scientific) were cultured in DMEM cell media, which was supplemented with 10% foetal calf serum (FBS) and penicillin/streptomycin. All cell lines were maintained in a 37° C. humidified incubator with 5% CO2 atmosphere. HCT116 cells were seeded into 96 well plates at a cell density of 60,000 cells per well and incubated overnight. Cells were also maintained in DMEM cell media with 10% fetal bovine serum (FBS) and penicillin/streptomycin. Cell media was then removed and replaced with cell media containing the various compounds/vehicle controls at the concentrations indicated in DMEM cell media with 2% FCS, After the stated incubation time (4 or 24 hours) cells were rinsed with PBS and then harvested in 100 μl of × NuPAGE LDS sample buffer supplied by Invitrogen (NP0008). […] Protein concentrations were measured by BCA assay (Pierce). […]

In data set [2] the test system is HCT116 p53 reporter cells. Kind of data set: p53 beta-lactamase reporter gene assay. It is filed as cell-based. As to conditions: read-out: P53 activity EC50 (μM) (2% FBS) 16 H; HCT116 p53 reporter, 2% FBS, 16 H.
Protocol: The cells were incubated overnight and followed by removal of cell growth media and replaced with Opti-MEM either containing 0% FBS or 10% FBS. […] Measurements were done using Envision multiplate reader (Perkin-Elmer).
The target of data set [3] is T1, human MDM2 protein (amino acids 1-125) (Homo sapiens, UniProt Q00987). Kind of data set: fluorescence anisotropy competition: unlabeled peptide titrated against the complex of MDM2 (250 nM) and FAM-labeled 12/1 peptide (50 nM).
T1 sequence (Q00987 1-125 limits assumed): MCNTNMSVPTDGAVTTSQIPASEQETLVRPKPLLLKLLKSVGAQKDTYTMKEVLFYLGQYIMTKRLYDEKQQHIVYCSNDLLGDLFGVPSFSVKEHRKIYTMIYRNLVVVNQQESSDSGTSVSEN
Data set [4] deals with MDM4 protein (human) (UniProt O15151). The data set is described as follows: fluorescence polarization, MDM4.
Data set [5] has the same target. The data set is described as follows: fluorescence polarization assay on MDM4 (anisotropy falls with the peptide concentration; the labeled tracer used with MDM4 is not given).
The target in data set [6] is T1, human MDM2 protein (amino acids 1-125). Kind of data set: fluorescence polarization, MDM2.
For data set [7] the target is unchanged. Kind of data set: SPR, biotinylated MDM2 on streptavidin, peptide as analyte.
Another data set has as its target T2, MDM4 (Homo sapiens, UniProt O15151).
T2 construct: GST; made in house
T2 sequence (O15151 1-490): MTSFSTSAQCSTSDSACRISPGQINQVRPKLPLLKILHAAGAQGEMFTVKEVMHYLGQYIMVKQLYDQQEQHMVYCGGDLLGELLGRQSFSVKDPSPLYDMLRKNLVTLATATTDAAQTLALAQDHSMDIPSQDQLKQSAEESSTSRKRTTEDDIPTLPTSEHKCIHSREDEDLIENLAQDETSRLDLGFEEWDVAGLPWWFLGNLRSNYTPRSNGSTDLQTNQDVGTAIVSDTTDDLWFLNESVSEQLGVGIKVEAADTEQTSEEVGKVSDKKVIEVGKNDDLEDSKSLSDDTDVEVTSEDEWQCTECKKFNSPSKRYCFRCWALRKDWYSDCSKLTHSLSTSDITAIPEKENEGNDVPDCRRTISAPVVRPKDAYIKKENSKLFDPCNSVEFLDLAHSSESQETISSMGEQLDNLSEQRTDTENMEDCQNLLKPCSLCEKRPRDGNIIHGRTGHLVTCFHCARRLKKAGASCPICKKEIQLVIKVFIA
The data set is described as follows: Fluorescence polarization (FP) binding to MDM4/MDMX. The note with it: FP assay, MDM4 (MDMX).

Another data set deals with HCT116 cells. The data set is described as follows: Lactate dehydrogenase (LDH) release assay. It is filed as cell-based. As to conditions: up to 50 μM.
In the next data set the target is T3, MDM2 (Homo sapiens, UniProt Q00987).
T3 construct: GST (N); His6 (N); made in house; host or cells: E. coli BL21 (DE3) Rosetta T1R
T3 sequence (Q00987 1-125): as the sequence (Q00987 1-125 limits assumed) above
Kind of data set: Surface plasmon resonance (SPR) binding to MDM2. As to conditions: MDM2.

The nature of data set [8]: Circular dichroism (CD) helicity of peptide in solution. As to conditions: 25° C. It is filed as physicochemical.
Protocol: Prior to the experiment, 5 μl of the 10 mM stock peptide was mixed with 45 μl of 100% methanol, and dried for 2 hours in the SpeedVac concentrator (Thermo Scientific). The dried peptide was reconstituted in buffer, containing 1 mM HEPES pH 7.4 and 5% methanol, to a concentration of 1 mM. The peptide sample was placed in a quartz cuvette with a path length of 0.2 cm and the CD spectrum was recorded from 300 to 190 nm at 25° C., using the Chirascan-plus qCD machine (Applied Photophysics). […] An estimate of the secondary stmcture components of the peptide was carried out by converting the CD spectrum to mean residue ellipticity, before deconvoluting using the CDNN software (distributed by Applied Photophysics). All experiments were done in duplicates.
Data set [9] concerns the target T1, human MDM2 protein (amino acids 1-125). Kind of data set: fluorescence polarization competition, FAM-12/1 tracer, MDM2; FP assay: no binding, Kd capped at 10000 nM.
Data set [10] shares this target. The data set is described as follows: cell-based or functional assay.
Data set [11] shares this target. The data set is described as follows: fluorescence polarization competition, FAM-12/1 tracer, MDM2.
Data set [12] shares this target. Kind of data set: fluorescence polarization competition, MDM2.
Data set [13] shares this target. The data set is described as follows: fluorescence anisotropy competition: unlabeled peptide titrated against the complex of MDM2 (250 nM) and FAM-labeled 12/1 peptide (50 nM). The source holds these as a separate data set.

Protocol for HCT116 cells: The cells were incubated overnight followed by removal of cell media and addition of Opti-MEM Medium without FBS. Cells were then treated with peptides for 4/16 hours in Opti-MEM either in 10% FBS or serum free. Final concentration of DMSO was 0.5%. […] Measurements were carried out using Tecan plate reader.

Take `CC(=O)N[C@@H](CC(C)C)C(=O)N[C@H](C(=O)N[C@@H](Cc1ccccc1)C(=O)N[C@]1(C)CCCCCCC=CCCC[C@@](C)(C(=O)N[C@@H](CO)C(=O)N[C@@H](C)C(=O)N[C@@H](C)C(N)=O)NC(=O)[C@H](CC2CCC2)NC(=O)[C@H](CCC(N)=O)NC(=O)[C@H](C)NC(=O)[C@H](Cc2c[nH]c3ccccc23)NC(=O)[C@H](Cc2ccc(O)cc2)NC(=O)[C@H](CCC(=O)O)NC1=O)[C@@H](C)O` [ATSP-7041, reference compound]: the EC50 is at least 50 µM in data set [1] and 1.8 µM in [2]. For the same molecule, in the data set on HCT-116 cells, the “Western blot: stabilization of MDM2 and activation of p53” value was “Stabilization of MDM2 and activation of p53”.

Consider ATSP-7041 (peptide), for which the values for the IC50 (read off the curve) (in [3]; with MDM4 protein (human) [5]) were 500 nM and 1000 nM, respectively. In addition, the equilibrium dissociation constant (Kd) in the data set with MDM4 protein (human) [4] is 4.5 nM; in data set [6] it was 2 nM; in data set [7], under 1 nM.

As to `CC(C)C[C@H]1NC(=O)[C@@H](CCCCN)NC(=O)[C@@H](CCC(=O)O)NC(=O)[C@@H](Cc2ccc(C(F)(F)F)cc2)NC(=O)[C@@H](CC(N)=O)NC(=O)[C@]2(CCC/C=C\CCCCCC[C@](C)(C(N)=O)NC(=O)[C@@H](CC(C)C)NC1=O)CCC/C=C\CCC[C@@](C)(N)C(=O)N[C@H](C)C(=O)N[C@H](Cc1c[nH]c3cc(F)ccc13)C(=O)N[C@H](Cc1ccc(O)cc1)C(=O)N2` [^DPMI-δ (1-5-12)], in data set [1], the “counterscreen activity” value is given as “negligible counter screen activity”. The half-maximal effective concentration (EC50) in data set [1] is at least 50 µM; in [2] it was 4 µM. The dissociation constant Kd is 12.5 nM at MDM4, under 1 nM on MDM2 (Table 1) and under 1 nM at MDM2 (Table 2). Also, in the data set with HCT116 cells, the “LDH leakage” value is recorded as “No detectable LDH leakage”. In addition, the “CD (% helicity)” value in data set [8] came out at 52.1%; in [8] (listed as DPMI-δ(1,5,12)), 52%; in [8] (listed as stitched peptide), 52%. Further, in the data set with HCT-116 cells, the “Western blot: stabilization of MDM2 and activation of p53” value is “Stabilization of MDM2 and activation of p53”.

With [dT][dA][dTrp(6-F)][dY][R5][dN][dPhe(4-CF3)][dE][R5][dL][dL][dR]-NH2 (staple 5-9) [^DPMI-δ(5-9)], the Kd in [9] is over 10 µM. This molecule gave a P53 activity EC50 (µM) (2% FBS) 16 H in data set [10] of over 50 µM.

For the molecule [R5][dA][dTrp(6-F)][dY][R5][dN][dPhe(4-CF3)][dE][S5][dL][dL][R8]-NH2 (staple 1-5, 9-12) [^DPMI-δ(1-5,9-12)], the Kd in data set [11] is 0.7 nM; in [7], under 1 nM. Besides, the values for the IC50 (read off the curve) (in the data set with MDM4 protein (human) [5]; in data set [13]) were 2000 nM and 200 nM, respectively. Besides, in data set [10], the P53 activity EC50 (µM) (2% FBS) 16 H amounted to 34.6 µM. The molecule also came in with a fold increase in affinity as compared to ^DPMI-δ(1-5) and ^DPMI-δ(5-12) in data set [12] of 10 to 100 fold.

B1: ^DPMI-δ(1,5,12) (peptide)
peptide: XAXYXNXEKLLX
modifications: all alpha-amino acids have a D configuration; Xaa1 is R5 ((R)-2-(4'-pentenyl)-alanine), Xaa5 is B5 (2,2-(4'-pentenyl)-glycine), Xaa12 is R8 ((R)-2-(7'-octenyl)-alanine), joined by a hydrocarbon stitch 1-5 and 5-12 with residue 5 in common; Xaa3 is 6-F-Trp; Xaa7 is p-CF3-Phe; Xaa12 optionally has a C-terminal amide; Xaa1 optionally has a N-terminal acyl
With B1, the dissociation constant Kd was 4.25 nM in data set [11] and under 1 nM in data set [7]. In addition, the IC50 (read off the curve) with MDM4 protein (human) [5] was 1000 nM; in [13] it was 200 nM. This molecule also displayed a P53 activity EC50 (µM) (2% FBS) 16 H in data set [10] of 4 µM. Also, the fold increase in affinity as compared to ^DPMI-δ(1-5) and ^DPMI-δ(5-12) in data set [12] was 10 to 100 fold.
